From patent US20250361544A1, “TYPE III-D CRISPR-CAS SYSTEM AND USES THEREOF” (BOARD OF REGENTS, THE UNIVERSITY OF TEXAS SYSTEM, published 2025)

Molecular target: T1, Csx19 subunit of the Synechocystis sp. PCC 6803 Type III-Dv complex (Synechocystis sp. PCC 6803)
T1 construct: Untagged, co-expressed from pPF2434 in E. coli; one copy in the complex
T1 chain: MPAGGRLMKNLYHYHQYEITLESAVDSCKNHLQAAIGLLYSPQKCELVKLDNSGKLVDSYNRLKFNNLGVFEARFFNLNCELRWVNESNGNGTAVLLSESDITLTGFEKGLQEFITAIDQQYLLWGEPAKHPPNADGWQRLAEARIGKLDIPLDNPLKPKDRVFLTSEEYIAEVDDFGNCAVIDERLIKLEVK
Test: cryo-EM structure of the binary complex, 2.5 Å
Description: Fully assembled Type III-D binary complex was diluted to a concentration of 0.3 mg/ml in SEC buffer before 2.5 μl of sample was added to a quantifoil 1.2/1.3 grid that was glow discharged for 1 minute. Sample was applied to the grid in an FEI Vitrobot MarkIV kept at 100% humidity and 4° C. before blotting for 5.5 seconds with a force of 0. For the ssRNA target-bound complex, non-self ssRNA was mixed with the binary complex with a 2:1 molar ratio of RNA:Binary complex in SEC buffer to a final protein concentration of 0.3 mg/mL. Grids of the target-bound complex were frozen identical to that of the binary complex. Both grids were loaded to an FEI Titan Krios (Sauer Structural Biology Lab, University of Texas at Austin) operating at 300 kV. Images were taken at a pixel size of 0.81 Å/pixel with a dose rate of 10.6 e⁻/pixel/s for 5 seconds using a Gatan K3 direct electron detector, giving a final dosage of 80.5 e⁻/Å². Data collection was automated using SerialEM using a defocus range of −1.2 to −2.2 μm.
To delineate the architecture of this Type III-Dv effector, we used cryo-EM to determine a 2.5-Å resolution structure of the complex containing the nt crRNA (FIG. 1e,f, FIG. 8). To gain preliminary insights, we generated initial models of each subunit using Alphafold 2. […]

binding result: binds
B1: Cas10 subunit of the Synechocystis sp. PCC 6803 Type III-Dv CRISPR-Cas complex, with N-terminal His6 tag and TEV site (other)
chain: MFLVLIETSGNQHFIFSTNKLRENIGASELTYLATTEILFQGVDRVFQTNYYDQWSDTNSLNFLADSKLNPAIDDPKNNADIEILLATSGKAIALVKEEGKAKQLIKEVTKQALINAPGLEIGGIYVNCNWQDKLGVAKAVKEAHKQFEVNRAKRAGANGRFLRLPIAAGCSVSELPASDFDYNADGDKIPVSTVSKVKRETAKSAKKRLRSVDGRLVNDLAQLEKSFDELDWLAVVHADGNGLGQILLSLEKYIGEQTNRNYIDKYRRLSLALDNCTINAFKMAIAVFKEDSKKIDLPIVPLILGGDDLTVICRGDYALEFTREFLEAFEGQTETHDDIKVIAQKAFGVDRLSACAGISIIKPHFPFSVAYTLAERLIKSAKEVKQKVTVTNSSPITPFPCSAIDFHILYDSSGIDFDRIREKLRPEDNTELYNRPYVVTAAENLSQAQGYEWSQAHSLQTLADRVSYLRSEDGEGKSALPSSQSHALRTALYLEKNEADAQYSLISQRYKILKNFAEDGENKSLFHLENGKYVTRFLDALDAKDFFANANHKNQGE
notes: Whole gene amplified from Synechocystis genomic DNA and co-expressed in E. coli from pPF2434; The complex also holds a 37-nt crRNA; also called His6-TEV-Cas10; N-His6-tagged Cas10; not shown: TEV cleavage was inefficient, so
